Laboratory results as given in article PMC9949253 (2023).

Target: BTN3A1 full intracellular domain (BFI) (Homo sapiens, UniProt O00481)
Assay: ITC

BTN3A1 full intracellular domain (BFI), sequence (O00481 272-513): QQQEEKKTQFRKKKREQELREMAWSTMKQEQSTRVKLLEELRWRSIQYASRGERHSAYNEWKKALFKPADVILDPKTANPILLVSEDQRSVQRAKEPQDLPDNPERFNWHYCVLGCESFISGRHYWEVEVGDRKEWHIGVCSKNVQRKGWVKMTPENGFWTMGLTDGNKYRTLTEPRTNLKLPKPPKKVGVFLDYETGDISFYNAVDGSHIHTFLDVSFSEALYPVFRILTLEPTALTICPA

B1: BTN2A1 ID271 (protein)
chain: KLQKEKKILSGEKEFERETREIALKELEKERVQKEEELQVKEKLQEELRWRRTFLHAVDVVLDPDTAHPDLFLSEDRRSVRRCPFRHLGESVPDNPERFDSQPCVLGRESFASGKHYWEVEVENVIEWTVGVCRDSVERKGEVLLIPQNGFWTLEMHKGQYRAVSSPDRILPLKESLCRVGVFLDYEAGDVSFYNMRDRSHIYTCPRSAFSVPVRPFFRLGCEDSPIFICPALTGANGVTVPEEGLTLHRVGTHQSL
modifications: HMBPP
- Kd: 0.78 µM

B2: BTN2A1 ID271 (protein)
chain: KLQKEKKILSGEKEFERETREIALKELEKERVQKEEELQVKEKLQEELRWRRTFLHAVDVVLDPDTAHPDLFLSEDRRSVRRCPFRHLGESVPDNPERFDSQPCVLGRESFASGKHYWEVEVENVIEWTVGVCRDSVERKGEVLLIPQNGFWTLEMHKGQYRAVSSPDRILPLKESLCRVGVFLDYEAGDVSFYNMRDRSHIYTCPRSAFSVPVRPFFRLGCEDSPIFICPALTGANGVTVPEEGLTLHRVGTHQSL
modifications: 4-M-HMBPP
- Kd: 190 µM
